2 molecules from patent US20230242586A1 (University of California, published 2023) can be followed below.

This experiment addresses T1, biotinylated K-Ras(G12D)·GppNHp (His-Avi-TEV-KRAS (G12D)) (human, biotin on the Avi tag (co-expressed BirA)).
T1 construct: Loaded with GppNHp; the protocol for the biotinylated proteins tells of no tag cleavage; Used in the TR-FRET assay
As to the kind of experiment: TR-FRET Ras-Raf interaction assay: biotinylated K-Ras(G12D)·GppNHp with GST-Raf1-RBD, peptide titrated (competition). (TR-FRET usually uses a lanthanide donor and a delayed reading to cut background.)

Bridge positions count the residues as written; N and C are the ends. Square brackets hold non-standard residues; d marks the D form.

B1: KD17 (peptide)
peptide: {CH2CO}-[dY]NYPYRPLELGWYCG-NH2
modifications: thioether N-14
notes: Chemically synthesized linker-free thioether macrocycle; in the mRNA display selection the same peptide stood as a peptide-mRNA/cDNA fusion
In the case of B1, the binding result is “binds”.

B2: KD1 (peptide)
peptide: {CH2CO}-[dY]IIVTEKFIWVHHCG-NH2
modifications: thioether N-14
notes: as for B1
For B2, the binding result is “binds”.
